The source of these data is patent US8771644B2, “Imaging probes” (Sanofi, priority 2007, dated 2014).

The Km is the concentration of substrate that gives half-maximal velocity. By Vmax is commonly meant the top rate of the reaction or transport when substrate is in excess. What is called kcat is the number of substrate molecules converted per active site and unit of time at saturation. What is called kcat/Km is the second-order rate constant that governs catalysis at low substrate concentration.

Common to all, as to type: biochemical
The subject of data set [1] is CN(C)c1ccc(/N=N/c2ccc(C(=O)NCCCC[C@H](NC(=O)[C@H](CCC(=O)NCCNc3cccc4c(S(=O)(=O)O)cccc34)NC(=O)[C@H](CC3CCCCC3)NC(=O)N3CCOCC3)C(=O)O)cc2)cc1. Kind of data set: in vitro activity assay (fluorescence, substrate cleavage) with Cath L. As to conditions: other: Cath L; measurement performed at pH 7.5; pH 7.5; 37.0 °C. How it is done: (§1) […] The substrates were solved in DMSO and added to enzyme solution with a final concentration of 50 μM.
(§2) Fluorescence was measured with an Tecan SAFIRE II spectrometer (excitation wavelength: 336 nm; emission wavelength: 490 nm; excitation band: 10.0 nm; emission band: 10.0 nm; amplification (manual): 90).

Data set [2] has as its system CN(C)c1ccc2c(c1)Oc1cc(N(C)C)ccc1C21OC(=O)c2cc(C(=O)NCC[C@H](NC(=O)[C@H](CC3CCCCC3)NC(=O)N3CCOCC3)C(=O)NCCNC(=O)c3ccc(-c4c5ccc(=O)cc-5oc5cc(O)ccc45)c(C(=O)O)c3)ccc21. The data set is described as above. As to conditions: other: Cath L; measurement performed at pH 5.5; pH 5.5; 37.0 °C. On the procedure: as §1, §2
The test system of data set [3] is CN(C)c1ccc(/N=N/c2ccc(C(=O)NCCCC[C@H](NC(=O)[C@H](CCC(=O)NCCNc3cccc4c(S(=O)(=O)O)cccc34)NC(=O)[C@H](CC3CCCCC3)NC(=O)N3CCOCC3)C(=O)O)cc2)cc1. Kind of data set: in vitro activity assay (fluorescence, substrate cleavage) with Cath B. To be noted: other: Cath B; measurement performed at pH 7.5; pH 7.5; 37.0 °C. How it is done: as §1, §2
The test system of data set [4] is CN(C)c1ccc2c(c1)Oc1cc(N(C)C)ccc1C21OC(=O)c2cc(C(=O)NCC[C@H](NC(=O)[C@H](CC3CCCCC3)NC(=O)N3CCOCC3)C(=O)NCCNC(=O)c3ccc(-c4c5ccc(=O)cc-5oc5cc(O)ccc45)c(C(=O)O)c3)ccc21. The description is as above. As to conditions: other: Cath B; measurement performed at pH 5.5; pH 5.5; 37.0 °C. On the procedure: as §1, §2

Sequence of Cath L (Homo sapiens) (chain, as listed by the source): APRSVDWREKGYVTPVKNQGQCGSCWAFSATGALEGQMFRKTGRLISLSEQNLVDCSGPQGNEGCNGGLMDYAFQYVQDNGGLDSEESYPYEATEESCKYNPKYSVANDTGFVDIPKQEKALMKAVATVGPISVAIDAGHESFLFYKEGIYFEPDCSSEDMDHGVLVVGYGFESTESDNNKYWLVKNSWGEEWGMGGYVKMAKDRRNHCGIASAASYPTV

As for Cath L (Homo sapiens), in data set [1], the Km came to 8.3 mM, the maximal velocity (Vmax) was 0.27 µmol/min, the catalytic constant (kcat) came out at 1.26 s⁻¹ and the catalytic efficiency (kcat/Km) came to 152 M⁻¹ s⁻¹. Moreover, in data set [2], the Km was found to be 7.1 mM, the Vmax turned out to be 0.582 µmol/min and the kcat amounted to 3.01 s⁻¹.

Regarding Cath B (Homo sapiens), in data set [3], the Km worked out at 0.12 mM, the Vmax was determined as 0.006 µmol/min and the kcat/Km worked out at 250 M⁻¹ s⁻¹. In data set [4], the Km amounted to 0.88 mM, the Vmax came to 0.156 µmol/min and the turnover number (kcat) stood at 0.25 s⁻¹.
